Key:
human IL-1β [1] = target: T1, human IL-1β (human, UniProt P01584 117-269); experiment: BIAcore, antibody immobilized at low density, ligand flowed (refers to Example 9)
T1 construct: mature; also called mature human IL-1β; Interleukin-1β
Method: The binding affinity of the Mu007 antibody was determined using surface plasmon resonance (BIAcore™). In these experiments antibody was immobilized at low density on a BIAcore™ chip and ligand was flowed past. Build up of mass at the surface of the chip was measured. This analytical method allows the determination in real time of both on and off rates for binding. The Mu007 antibody has an affinity of approximately 6.0 picomolar (See Example 9). […] (See example 9). Hu007 comprises heavy and light chains that correspond to SEQ ID NO:17 and SEQ ID NO:13, respectively.
Affinities and specificities of both Hu007 and Mu007 were determined using BIAcore measurements. BIAcore™ is an automated biosensor system that measures molecular interactions. (Karlsson, et al. (1991) J. Immunol. Methods 145: 229-240). In these experiments antibody was immobilized at low density on a BIAcoreTm chip. Ethyl-dimethylaminopropyl-carbodiimide (EDC) was used to couple reactive amino groups to purified goat anti-human IgG or oat anti-rabbit IgG to a flow cell of a carboxy-methyl (CM5) BIAcore™ sensor chip. Goat IgG was diluted in sodium cetate buffer, pH 4.0, and immobilized on a flow cell of a M5 chip using EDC to yield 1000 response units. Unreacted sites were blocked with ehanolamine. A flow rate of 60 μl/min was used. […]

human IL-1β [2] = target: T1, human IL-1β; experiment: cell-based or functional assay
human IL-1β [3] = target: T1, human IL-1β; experiment: cell-based or functional assay; remark: listed apart in the source
human IL-1α = target: T2, human IL-1α (human, UniProt P01583 113-271); experiment: BIAcore (refers to Example 9)
T2 sequence (looked up): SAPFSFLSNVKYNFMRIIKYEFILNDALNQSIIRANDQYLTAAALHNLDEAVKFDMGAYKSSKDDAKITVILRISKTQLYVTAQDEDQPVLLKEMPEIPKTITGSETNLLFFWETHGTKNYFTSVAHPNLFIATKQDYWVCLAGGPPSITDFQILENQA
Method: Affinities and specificities of both Hu007 and Mu007 were determined using BIAcore measurements. BIAcore™ is an automated biosensor system that measures molecular interactions. (Karlsson, et al. (1991) J. Immunol. Methods 145: 229-240). In these experiments antibody was immobilized at low density on a BIAcoreTm chip. Ethyl-dimethylaminopropyl-carbodiimide (EDC) was used to couple reactive amino groups to purified goat anti-human IgG or oat anti-rabbit IgG to a flow cell of a carboxy-methyl (CM5) BIAcore™ sensor chip. Goat IgG was diluted in sodium cetate buffer, pH 4.0, and immobilized on a flow cell of a M5 chip using EDC to yield 1000 response units. Unreacted sites were blocked with ehanolamine. A flow rate of 60 μl/min was used. Multiple binding/elution cycles were performed by injection a 100 μl solution of 15 μg/mL Mu007 or Hu007 followed by human IL-1β, mouse IL-1β, rat IL-1β, cynomolgus monkey IL-1β, porcine IL-1β, human IL-1 receptor antagonist, and human IL-1α at decreasing concentrations for each cycle (e.g. 1500, 750, 375, 188, 94, 47, 23.5, 12, and 0 picomolar). Elution was performed with glycine-HCl, pH 1.5. BIAevaluation™ was used to analyze the kinetic data. Table 2 depicts the affinities of Hu007 and Mu007 for human and cynomolgus IL1β. […] Cynomolgus and porcein IL-1β had 100% binding to Hu007 relative to human IL-1β.

human IL-1β [4] = target: T1, human IL-1β; experiment: ELISA competition on coated human IL-1β, competitor biotinylated Mu007
Method: (§1) Wells of 96-well ELISA plates (Nunc-Immuno plate, Cat # 439454, NalgeNunc) were coated with 100 μμl of 0.5 μg/ml of human IL-1β in 0.2M sodium carbonate-bicarbonate buffer (pH 9.4) overnight at 4° C., washed with Wash Buffer, blocked with Superblock blocking buffer for 30 min at 37° C., and washed again with Wash Buffer. A mixture of biotinylated Mu007 (0.16 μg/ml final concentration) and competitor antibody (Mu007 or Hu007; starting at 100 μg/ml final concentration and serial 3-fold dilutions) in ELISA Buffer were added in triplicate in a final volume of 100 μl per well. As a no-competitor control, 100 μl of 0.16 μg/ml biotinylated Mu007 was used. As a background control, 100 μl of ELISA Buffer was used. ELISA plates were incubated at 37° C. for 2 hr. After washing the wells with Washing Buffer, 100 μl of 1 μg/ml HRP-conjugated streptavidin (Jackson ImmunoResearch) was added to each well. ELISA plates were incubated at room temperature for 30 min and washed with Washing Buffer. For color development, 100 μl/well of ABTS substrate was added. Color development was stopped by adding 100 μl/well of 2% oxalic acid. Absorbance was read at 415 nm.
(§2) Both Mu007 and Hu007 competed with biotinylated Mu007 in a concentration-dependent manner. […]

human IL-1β [5] = target: T1, human IL-1β; experiment: ELISA competition on coated human IL-1β, competitor biotinylated Mu007, Exp. B
Method: as §1, §2

human IL-1β [6] = target: T1, human IL-1β; experiment: ELISA competition on coated human IL-1β, competitor biotinylated Mu007, average
Method: as §1, §2

human IL-1β [7] = target: T1, human IL-1β; experiment: ELISA competition on coated human IL-1β, competitor biotinylated Mu007, Exp. C
Method: as §1, §2

human IL-1β [8] = target: T1, human IL-1β; experiment: ELISA competition on coated human IL-1β, competitor biotinylated Mu007, Exp. A
Method: as §1, §2

B1: mouse monoclonal antibody Mu007 (antibody, V domains shown)
VH: QVQLVQSGAEVKKPGASVKVSCKVSGYTFSRYWIEWVRQAPGKGLEWIGEILPGNGNINYNEKFKGKATITADTSTDTAYMELSSLRSEDTAVYYCSTIYYDYDQGFTYWGQGTLVTVSA
VL: DIKMTQSPSSMYASLGERVTITCKASQDIDRYLSWFQQKPGKSPKTLIYRVKRLVDGVPSRFSGSASGQDYSLTISSLQYEDMGIYYCLQYDEFPYTFGGGTKLEIK
For B1, the Kd (human IL-1β [1]) was about 0.006 nM, the “IC50 (read off the curve)” value (human IL-1β [2]) was about 0.2 nM and the “inhibition of IL-1β stimulated proliferation of T1165.17 cells (3H-thymidine incorporation), average IC50 from three separate experiments” value (human IL-1β [3]) was 0.22 nM. B1: no binding (human IL-1α).

B2: humanized antibody Hu007 (antibody, human IgG1, kappa, V domains shown)
VH: QVQLVQSGAEVKKPGASVKVSCKVSGYTFSRYWIEWVRQAPGKGLEWIGEILPGNGNINYNEKFKGKATITADTSTDTAYMELSSLRSEDTAVYYCSTIYYDYDQGFTYWGQGTLVTVSS
VL: DIQMTQSPSSLSASVGDRVTITCKASQDIDRYLSWFQQKPGKAPKSLIYRVKRLVDGVPSRFSGSASGTDYTLTISSLQPEDFATYYCLQYDEFPYTFGQGTKLEIKR
notes: the listing entries may be nucleotide entries with a translation; also called Hu007 IgG1 monoclonal antibody
B2 was tested, and the Kd (human IL-1β [1]) was 0.01 to 0.02 nM, the “IC50 (read off the curve)” value (human IL-1β [2]) was about 0.4 nM and the “inhibition of IL-1β stimulated proliferation of T1165.17 cells (3H-thymidine incorporation), average IC50 from three separate experiments” value (human IL-1β [3]) was 0.48 nM. The “neutralization of human IL-1β in the murine model of inflammatory stimulation, relative to Mu007” value (human IL-1β [3]) was ~0.33 fold of Mu007, the “relative binding, fold less than that of Mu007” value (human IL-1β [4]) was 1.3 fold and the “Difference (IC50 of Hu007 against IC50 of Mu007)” value (“Difference” below) (human IL-1β [5]) was 0.88 ratio. For the same binder, the “Difference” value (human IL-1β [6]) was 0.89 ratio, the “Difference” value (human IL-1β [7]) was 0.82 ratio and the “Difference” value (human IL-1β [8]) was 0.98 ratio.
